The supplement of paper PMC7125110
± gives the standard error. For part of these data: This sample holds only a part of the variants without activity.

B1: glmS ribozyme (parent)
chain: AUAAAAGCGCCAGAACUACAGAAAUGUAGUUGACGAGGAGGAGGUUUAUCGAAUUUUCGGCGGAUGCCUCCAAA

What was measured:
Details in all cases: with glucosamine-6-phosphate
glucosamine-6-phosphate [1] = variants of: B1; assay: kcat; higher = faster cleavage; RNA array
Summary of the method: (§1)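 In situ transcription by E. coli RNA polymerase produced barcoded ribozyme variants on sequenced MiSeq chips, and a hybridised Cy3 probe tracked them at 37 °C. Glucosamine-6-phosphate was flowed in at 40 μM to 10 mM in HEPES/KCl/Mg(OAc)2 buffer. kcat and KM were taken from weighted Michaelis–Menten fits of kobs values from exponential decay fits.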

glucosamine-6-phosphate [2] = variants of: B1; assay: self-cleavage kobs at 40 uM GlcN6P; higher = faster cleavage; RNA array
Summary of the method: as §1

glucosamine-6-phosphate [3] = variants of: B1; assay: KM; higher = weaker cofactor use; RNA array
Summary of the method: as §1

glucosamine-6-phosphate [4] = variants of: B1; assay: self-cleavage kobs at 2500 uM GlcN6P; higher = faster cleavage; RNA array
Summary of the method: as §1

glucosamine-6-phosphate [5] = variants of: B1; assay: self-cleavage kobs at 10000 uM GlcN6P; higher = faster cleavage; RNA array
Summary of the method: as §1

glucosamine-6-phosphate [6] = variants of: B1; assay: self-cleavage kobs at 160 uM GlcN6P; higher = faster cleavage; RNA array
Summary of the method: as §1

glucosamine-6-phosphate [7] = variants of: B1; assay: self-cleavage kobs at 640 uM GlcN6P; higher = faster cleavage; RNA array
Summary of the method: as §1

Variant | kcat (glucosamine-6-phosphate [1]) [s⁻¹] | self-cleavage kobs at 40 uM GlcN6P (glucosamine-6-phosphate [2]) [s⁻¹] | KM (glucosamine-6-phosphate [3]) [µM] | self-cleavage kobs at 2500 uM GlcN6P (glucosamine-6-phosphate [4]) [s⁻¹] | self-cleavage kobs at 10000 uM GlcN6P (glucosamine-6-phosphate [5]) [s⁻¹] | self-cleavage kobs at 160 uM GlcN6P (glucosamine-6-phosphate [6]) [s⁻¹] | self-cleavage kobs at 640 uM GlcN6P (glucosamine-6-phosphate [7]) [s⁻¹]
G29U C61A | 1.26e-05 ± 2.3e-06 | < 1e-05 |  |  |  |  | 
G66U C71G | 8.21e-05 ± 2.6e-06 |  | 2320 ± 240 | 4.34e-05 ± 1.2e-05 | 6.65e-05 ± 1.1e-05 |  | 
U30A U47A | 0.00539 ± 0.0011 |  | 3150 ± 930 | 0.0025 ± 0.00032 | 0.00373 ± 0.00086 | 0.000206 ± 5.9e-05 | 0.000968 ± 0.00012
A33U U45A | 0.000201 ± 3.4e-05 | < 1e-05 | 4400 ± 1700 | 7.97e-05 ± 1.2e-05 | 0.000137 ± 1.5e-05 |  | 
A12U C67G C68G | 4.76e-05 ± 1.4e-05 |  |  | 4.47e-05 ± 1.5e-05 |  | 7.57e-05 ± 3.2e-05 | 6.79e-05 ± 1.9e-05
A42G C58G | 0.000303 ± 2.3e-05 |  | 6970 ± 950 | 7.8e-05 ± 1.5e-05 | 0.00018 ± 2.6e-05 |  | 
G37U U69G | 4.56e-05 ± 1.6e-05 |  |  |  |  | 3.74e-05 ± 8.6e-06 | 6.88e-05 ± 1.5e-05
U49A | 2.06e-05 ± 1.8e-06 | < 1e-05 |  | 2.11e-05 ± 3e-06 | 1.9e-05 ± 1.6e-06 |  | 
A12G C34U C58U C68G | 3.16e-05 ± 4.5e-06 |  |  |  |  |  | 
C11G C70U | 1.5e-05 ± 6.7e-07 |  | 138 ± 61 |  |  |  | 
G32A C58A | 0.00126 ± 0.00024 |  | 3330 ± 920 | 0.000498 ± 5.6e-05 | 0.00106 ± 0.00016 | 7.42e-05 ± 1.4e-05 | 0.000201 ± 2.2e-05
G37A G40U | 0.000159 ± 2e-05 |  | 2050 ± 490 | 8.45e-05 ± 9.3e-06 | 0.000151 ± 4.4e-05 |  | 3.99e-05 ± 7.5e-06
G26U C67G | 0.000379 ± 7.2e-05 |  | 901 ± 420 | 0.000254 ± 5.2e-05 | 0.000395 ± 0.00012 |  | 0.000245 ± 8.1e-05
A12C U56A | 0.0197 ± 0.004 | 0.00021 ± 2.5e-05 | 4980 ± 1400 | 0.0059 ± 0.00083 | 0.0135 ± 0.0011 | 0.000528 ± 7.5e-05 | 0.00217 ± 0.00031
U31A C70G | 0.000226 ± 2.5e-05 |  | 570 ± 170 | 0.000169 ± 2.4e-05 | 0.000235 ± 3.2e-05 | 6.6e-05 ± 1.6e-05 | 0.000116 ± 1.3e-05
A53U U57A | 0.000262 ± 3e-05 |  | 2870 ± 600 | 0.000113 ± 1.4e-05 | 0.000215 ± 3e-05 |  | 5.19e-05 ± 8e-06

Variant | kcat (glucosamine-6-phosphate [1]) [s⁻¹] | self-cleavage kobs at 40 uM GlcN6P (glucosamine-6-phosphate [2]) [s⁻¹] | KM (glucosamine-6-phosphate [3]) [µM] | self-cleavage kobs at 2500 uM GlcN6P (glucosamine-6-phosphate [4]) [s⁻¹] | self-cleavage kobs at 10000 uM GlcN6P (glucosamine-6-phosphate [5]) [s⁻¹] | self-cleavage kobs at 160 uM GlcN6P (glucosamine-6-phosphate [6]) [s⁻¹] | self-cleavage kobs at 640 uM GlcN6P (glucosamine-6-phosphate [7]) [s⁻¹]
A12C G44A | 0.000291 ± 2.6e-05 |  | 1580 ± 270 | 0.000204 ± 4e-05 | 0.00024 ± 3.8e-05 |  | 8.35e-05 ± 1.2e-05
U31G U46C | 0.000896 ± 0.00013 | 3.68e-05 ± 1.6e-05 | 1720 ± 420 | 0.000592 ± 0.00011 | 0.000731 ± 0.00014 | 7.33e-05 ± 1.5e-05 | 0.00021 ± 6.8e-05
U45A A53C | 0.0341 ± 0.0078 | 0.000466 ± 8.3e-05 | 3160 ± 860 | 0.017 ± 0.0047 | 0.0239 ± 0.0068 | 0.00139 ± 0.00027 | 0.00608 ± 0.00081
G29U G32C G43U A53U | 1.74e-05 ± 3.6e-06 | < 1e-05 | 9610 ± 3900 |  |  |  | 
C67A C70G | 3.41e-05 ± 3.9e-06 |  |  | 2.92e-05 ± 7.8e-06 | 3.34e-05 ± 5.8e-06 |  | 4.26e-05 ± 9.9e-06
G13U U54G C70G | 4.42e-05 ± 4.5e-06 |  |  | 4.17e-05 ± 1.2e-05 | 4.21e-05 ± 1.5e-05 |  | 5.17e-05 ± 2.4e-05
C16A U56C | 0.000253 ± 8.5e-06 | < 1e-05 | 1940 ± 160 | 0.000144 ± 3.2e-05 | 0.000211 ± 3.4e-05 |  | 6.38e-05 ± 1.8e-05
G40U G41C | 9.58e-05 ± 2.6e-05 |  |  | 8.94e-05 ± 1.2e-05 | 7.67e-05 ± 1.2e-05 | < 1e-05 | 
A6C C16G | 1.5e-05 ± 3.9e-07 | < 1e-05 | 9790 ± 480 |  |  | < 1e-05 | < 1e-05
A14G G43A | 0.000321 ± 4.1e-05 | < 1e-05 | 4730 ± 1200 | 0.000101 ± 2.2e-05 | 0.000222 ± 3.1e-05 |  | 4.36e-05 ± 1.3e-05
G40C U65A | 0.000379 ± 3.9e-05 |  | 1830 ± 350 | 0.000199 ± 3.6e-05 | 0.000346 ± 6.3e-05 | 3.58e-05 ± 1.5e-05 | 0.0001 ± 1.9e-05
A14U U45C | 0.000739 ± 0.00014 |  | 3320 ± 1200 | 0.000436 ± 6.7e-05 | 0.000531 ± 6e-05 |  | 0.000105 ± 1.9e-05
U55G G62U | < 1e-05 |  |  |  | < 1e-05 | < 1e-05 | 
A15U U46G | 0.000901 ± 0.00012 |  | 1650 ± 380 | 0.000642 ± 8.4e-05 | 0.000725 ± 7.1e-05 | 6.81e-05 ± 1e-05 | 0.000292 ± 3.4e-05
U65G C70U | 0.00416 ± 0.00036 | 5.75e-05 ± 5e-06 | 2980 ± 340 | 0.00238 ± 0.00036 | 0.00315 ± 0.00024 | 0.000203 ± 1.7e-05 | 0.000728 ± 6e-05
